Substitutions are numbered along the chain they refer to. Numbers in names are those of the source.
B1: Npw38(W52A): a WW domain variant of Npw38 (protein)
chain: MPLPVALQTRLAKRGILKHLEPEPEEEIIAEDYDDDPVDYEATRLEGLPPSAYKVFDPSCGLPYYWNADTDLVSWLSPHDPNSVVTKSAKKLRSSNADAEEKLDRSHDKSDRGHDKSDRSHEKLDRGHDKSDRGHDKSDRDRERGYDKVDRERERDRERDRDRGYDKADREEGKERRHHRREELAPYPKSKKAVSRKDEELDPMDPSSYSDAPRGTWSTGLPKRNEAKTGADTTAAGPLFQQRPYPSPGAVLRANAEASRTKQQD
B2: NpwBP: nuclear protein (SEQ ID NO: 2) that binds to Npw38 (protein, listed as Homo sapiens)
chain: MGRRSTSSTKSGKFMNPTDQARKEARKRELKKNKKQRMMVRAAVLKMKDPKQIIRDMEKLDEMEFNPVQQPQLNEKVLKDKRKKLRETFERILRLYEKENPDIYKELRKLEVEYEQKRAQLSQYFDAVKNAQHVEVESIPLPDMPHAPSNILIQDIPLPGAQPPSILKKTSAYGPPTRAVSILPLLGHGVPRLPPGRKPPGPPPGPPPPQVVQMYGRKVGFALDLPPRRRDEDMLYSPELAQRGHDDDVSSTSEDDGYPEDMDQDKHDDSTDDSDTDKSDGESDGDEFVHRDNGERDNNEEKKSGLSVRFADMPGKSRKKKKNMKELTPLQAMMLRMAGQEIPEEGREVEEFSEDDDEDDSDDSEAEKQSQKQHKEESHSDGTSTASSQQQAPPQSVPPSQIQAPPMPGPPPLGPPPAPPLRPPGPPTGLPPGPPPGAPPFLRPPGMPGLRGPLPRLLPPGPPPGRPPGPPPGPPPGLPPGPPPRGPPPRLPPPAPPGIPPPRPGMMRPPLVPPLGPAPPGLFPPAPLPNPGVLSAPPNLIQRPKADDTSAATIEKKATATISAKPQITNPKAEITRFVPTALRVRRENKGATAAPQRKSEDDSAVPLAKAAPKSGPSVPVSVQTKDDVYEAFMKEMEGLL

What was measured:
Npw38 = target: T1, Npw38 (Homo sapiens, UniProt O60828, W52A); assay: Npw38-NpwBP binding detection by intracellular localization of GFP fluorescence in COS7 cells; format: cell-based; details: expressed in place of HA-Npw38 together with NpwBP-GFP
T1 construct: expressed in transfected cells; host or cells: COS7 (monkey kidney)
T1 sequence (O60828 2-265 W52A): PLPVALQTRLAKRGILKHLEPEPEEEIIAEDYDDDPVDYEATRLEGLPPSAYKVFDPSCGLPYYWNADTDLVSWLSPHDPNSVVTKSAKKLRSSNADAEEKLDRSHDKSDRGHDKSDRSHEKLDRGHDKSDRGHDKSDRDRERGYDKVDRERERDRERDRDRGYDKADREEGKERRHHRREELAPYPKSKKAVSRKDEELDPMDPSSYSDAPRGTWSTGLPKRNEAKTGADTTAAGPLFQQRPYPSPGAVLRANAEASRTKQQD
Description: Monkey kidney-derived, cultured cell COS7 was incubated in a 10% fetal calf serum-containing Dulbecco's modified Eagle's medium (DMEM) in the presence of 5% CO2 at 37° C. COS7 cells of 1=10^5 were placed in a 6-well plate (from Nunk, having a well diameter of 3 cm), and further incubated therein in the presence of 5% CO2 at 37° C. for 22 hours. After the medium was removed, the cell sur were washed with a phosphate buffer solution (PBS), and then further washed with a 50 mM Tris-HCl (pH 7.5)-containing DMEM. To these cells, added was a suspension comprising 1 μl of a plasmid suspension, 0.6 ml of DMEM and 3 μl of TRANSFECTAM™ (from IBF), and incubated in the presence of 5% CO2 at 37° C. for 12 hours. Then, the cells were washed with PBS, and fixed with 4% peraformaldehyde-containing PBS at room temperature for 10 minutes. The thus-fixed cells were washed with PBS, then treated with 0.2% Triton X-100, and thereafter blocked with 5% milk PBS. This was reacted with an anti-HA antibody for 45 minutes, then washed with PBS, and reacted with a rhodamine-binding secondary antibody for 45 minutes. […]
First, pKA1-NpwBP(P1)-GFP or pKA1-NpwBP(P2)-GFP was singly introduced into COS7 cells, and the localization of these fusion proteins in the cells was checked through fluorescence microscopy based on the green fluorescence of GFP as the index thereof. […]

[1] = target: T2, binding of Npw38 to NpwBP(P2)-GFP (Homo sapiens, UniProt O60828); assay: Detection of binding-inhibitory action on intranuclear localization of NpwBP(P2)-GFP; format: cell-based; details: COS7 cells, NpwBP of more than NpwBP(P2)-GFP co-expressed along with Npw38 and NpwBP(P2)-GFP
T2 construct: expressed in transfected cells; host or cells: COS7 (monkey kidney)
T2 sequence (O60828 1-265): B1 chain with A52W
Description: Monkey kidney-derived, cultured cell COS7 was incubated in a 10% fetal calf serum-containing Dulbecco's modified Eagle's medium (DMEM) in the presence of 5% CO2 at 37° C. COS7 cells of 1=10^5 were placed in a 6-well plate (from Nunk, having a well diameter of 3 cm), and further incubated therein in the presence of 5% CO2 at 37° C. for 22 hours. After the medium was removed, the cell sur were washed with a phosphate buffer solution (PBS), and then further washed with a 50 mM Tris-HCl (pH 7.5)-containing DMEM. To these cells, added was a suspension comprising 1 μl of a plasmid suspension, 0.6 ml of DMEM and 3 μl of TRANSFECTAM™ (from IBF), and incubated in the presence of 5% CO2 at 37° C. for 12 hours. Then, the cells were washed with PBS, and fixed with 4% peraformaldehyde-containing PBS at room temperature for 10 minutes. The thus-fixed cells were washed with PBS, then treated with 0.2% Triton X-100, and thereafter blocked with 5% milk PBS. This was reacted with an anti-HA antibody for 45 minutes, then washed with PBS, and reacted with a rhodamine-binding secondary antibody for 45 minutes.
In the system of the above (2), NpwBP of more than NpwBP(P2)-GFP was co-expressed in the cells along with Npw38 and NpwBP(P2)-GFP. In this case, the intranuclear localization of NpwBP(P2)-GFP was inhibited. […]

| Molecule | intranuclear localization of the green fluorescence of NpwBP-GFP (Npw38) | intranuclear localization of NpwBP(P2)-GFP [1] |
| --- | --- | --- |
| B1 | no intranuclear localization | – |
| B2 | – | inhibited |

Reference: patent US20030040012A1, “Method of detecting protein-protein interaction” (priority 2000, published 2003)
